From patent US20260201355A1 (GENKORE, published 2026) come the findings set out here.

The data set concerns the molecule itself. Description: size exclusion chromatography (Superdex 200) of the CWCas12f-gRNA ribonucleoprotein complex. Here is the method:
Using the method for production of ribonucleoprotein particles in Example 1.7, the CWCas12f protein was incubated with the gRNA to produce a ribonucleoprotein complex. The ribonucleoprotein complex was analyzed by size exclusion chromatography using a Superdex 200 column.
(In general: In gel filtration, larger molecules generally elute earlier.)

B1: CWCas12f protein (enzyme)
chain: MGEKSSRRRRNGKSGAWTAAITSCVGGKMAKNTITKTLKLRIVRPYNSAEVEKIVADEKNNREKIALEKNKDKVKEACSKHLKVAAYCTTQVERNACLFCKARKLDDKFYQKLRGQFPDAVFWQEISEIFRQLQKQAAEIYNQSLIELYYEIFIKGKGIANASSVEHYLSDVCYTRAAELFKNAAIASGLRSKIKSNFRLKELKNMKSGLPTTKSDNFPIPLVKQKGGQYTGFEISNHNSDFIIKIPFGRWQVKKEIDKYRPWEKFDFEQVQKSPKPISLLLSTQRRKRNKGWSKDEGTEAEIKKVMNGDYQTSYIEVKRGSKIGEKSAWMLNLSIDVPKIDKGVDPSIIGGIDVGVKSPLVCAINNAFSRYSISDNDLFHFNKKMFARRRILLKKNRHKRAGHGAKNKLKPITILTEKSERFRKKLIERWACEIADFFIKNKVGTVQMENLESMKRKEDSYFNIRLRGFWPYAEMQNKIEFKLKQYGIEIRKVAPNNTSKTCSKCGHLNNYFNFEYRKKNKFPHFKCEKCNFKENADYNAALNISNPKLKSTKEEP
notes: Recombinant protein purified from E. coli and incubated with engineered sgRNA to form the ribonucleoprotein before size exclusion chromatography; The complex also contains the sgRNA, which is not a protein; also called TnpB; wild-type CWCas12f
With B1, the binding result is listed as “binds”.
